Our source for the stoichiometry N values is article PMC8618838.

The test has as its target wt HBc capsid like particles (Hepatitis B virus core protein) (Human Hepatitis B virus) (UniProt P03147). Put plainly: cryo-EM structure.

What is called stoichiometry N is the number of molecules, sites or subunits per partner or assembly. For “wt HBc capsid like particles (Hepatitis B virus core protein) (from UniProt P03147) (natural protein)”, the stoichiometry N was found to be 240.
